Our source for the stoichiometry N values is article PMC8124061.

Where “and” joins values, the source holds several entries; their conditions need not be identical. Equal entries are not always repeated.

Experiment [1] addresses dimeric ubiquinol:cytochrome c oxidoreductase (complex III, III2) of Euglena gracilis mitochondria (Euglena gracilis (endogenous in mitochondria)). The experiment in a line: native gel or EMSA; two-dimensional BN/SDS Tricine-PAGE (12%) of digitonin-extracted complexes; subunits told by their electrophoretic profile.
The target in experiment [2] is F1FO ATP synthase (complex V) of Euglena gracilis mitochondria (Euglena gracilis (endogenous in mitochondria)). The experiment in a line: native gel or EMSA; purified dimeric ATP synthase incubated with DDM at room temperature for 10 min; species assigned by size; kind of gel not told in the legend. For orientation: A gel shift assay detects complexes by their altered migration in electrophoresis.

The target is the same in experiment [3]. The experiment in a line: native gel or EMSA; two-dimensional BN/BN-PAGE of digitonin-solubilised mitochondria; second BN-PAGE with 0.02% DDM in the cathode buffer, which dissociates the supercomplexes; NADH-dehydrogenase activity stain.
The target is the same in experiment [4]. The experiment in a line: native gel or EMSA; BN-PAGE, 3-10% acrylamide gradient, of mitochondria solubilised with DDM 4.0 g/g protein (3.2% w/v), 4 °C, pH 8.4, 100 mM NaCl; Coomassie and in-gel NADH-dehydrogenase and ATPase activity.
For experiment [5] the target is unchanged. Described as above. The source holds these as a separate data set.
Experiment [6] has the same target. The experiment in a line: native gel or EMSA; BN-PAGE, 3-10% acrylamide gradient with 0.05% digitonin, of mitochondria solubilised with digitonin 8.0 g/g protein (6.4% w/v; up to 12 g/g), 4 °C; Coomassie and in-gel NADH-dehydrogenase and ATPase activity.

Consider “cytochrome c oxidase (complex IV) of Euglena gracilis mitochondria”, for which, in experiment [1], the stoichiometry N (as a rule, a count of units in the complex or per binding partner) is 1 and 2.

With “F1FO ATP synthase (complex V) of Euglena gracilis mitochondria”, the stoichiometry N in experiment [2] was 2; in experiment [3], 4; in experiment [4] it was 2; in experiment [5] it was 4; in experiment [6] it was 2 and 4.
